Data published in IntAct's records for PubMed 25961797.

Tests used:
[1] = molecular target: cbp_mouse Crebbp (UniProt P45481)
[2] = molecular target: cry1_mouse Cry1 (UniProt P97784)
Sequence of cry1_mouse Cry1 (P97784 whole entry): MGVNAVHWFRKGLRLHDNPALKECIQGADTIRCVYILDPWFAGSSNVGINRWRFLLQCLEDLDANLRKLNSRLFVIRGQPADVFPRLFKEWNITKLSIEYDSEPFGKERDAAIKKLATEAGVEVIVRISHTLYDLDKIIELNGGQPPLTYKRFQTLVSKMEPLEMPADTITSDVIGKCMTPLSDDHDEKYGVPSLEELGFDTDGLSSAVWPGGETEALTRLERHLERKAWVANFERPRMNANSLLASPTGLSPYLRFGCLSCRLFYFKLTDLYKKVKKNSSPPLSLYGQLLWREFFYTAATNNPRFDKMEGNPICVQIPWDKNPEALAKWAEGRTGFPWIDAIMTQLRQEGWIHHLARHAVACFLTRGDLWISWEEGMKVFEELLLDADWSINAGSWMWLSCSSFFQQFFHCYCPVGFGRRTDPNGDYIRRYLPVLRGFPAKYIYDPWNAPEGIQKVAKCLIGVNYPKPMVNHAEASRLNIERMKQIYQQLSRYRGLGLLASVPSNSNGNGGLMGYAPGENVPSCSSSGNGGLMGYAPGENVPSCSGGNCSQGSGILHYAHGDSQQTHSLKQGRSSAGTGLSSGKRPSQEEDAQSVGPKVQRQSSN

Sequence of Basic helix-loop-helix ARNT-like protein 1 (Mus musculus), Q9WTL8-4 L606A;L607A (Q9WTL8 other isoform, or with tags, fused parts or gaps L606A;L607A): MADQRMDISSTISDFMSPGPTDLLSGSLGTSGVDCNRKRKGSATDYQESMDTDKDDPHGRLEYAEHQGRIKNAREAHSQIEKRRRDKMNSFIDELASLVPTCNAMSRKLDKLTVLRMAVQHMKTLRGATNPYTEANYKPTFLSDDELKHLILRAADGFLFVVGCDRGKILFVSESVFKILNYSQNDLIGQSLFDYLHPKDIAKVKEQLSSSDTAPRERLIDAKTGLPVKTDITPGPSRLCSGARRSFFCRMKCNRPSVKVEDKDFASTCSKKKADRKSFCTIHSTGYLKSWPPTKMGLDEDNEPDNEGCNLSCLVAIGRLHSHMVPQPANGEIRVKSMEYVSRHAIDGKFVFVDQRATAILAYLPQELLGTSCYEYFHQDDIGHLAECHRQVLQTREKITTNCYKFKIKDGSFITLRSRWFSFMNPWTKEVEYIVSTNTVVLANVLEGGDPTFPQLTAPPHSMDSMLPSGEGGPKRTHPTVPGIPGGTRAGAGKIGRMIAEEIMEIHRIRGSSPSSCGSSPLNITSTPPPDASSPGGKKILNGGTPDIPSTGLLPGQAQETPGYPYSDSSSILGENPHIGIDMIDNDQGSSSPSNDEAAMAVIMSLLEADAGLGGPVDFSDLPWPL
Sequence of Basic helix-loop-helix ARNT-like protein 1 (Mus musculus), Q9WTL8-4 V602A;I603F (Q9WTL8 other isoform, or with tags, fused parts or gaps V602A;I603F): as the sequence (Q9WTL8 other isoform, or with tags, fused parts or gaps L606A;L607A) above
Sequence of cbp_mouse Crebbp (P45481 whole entry): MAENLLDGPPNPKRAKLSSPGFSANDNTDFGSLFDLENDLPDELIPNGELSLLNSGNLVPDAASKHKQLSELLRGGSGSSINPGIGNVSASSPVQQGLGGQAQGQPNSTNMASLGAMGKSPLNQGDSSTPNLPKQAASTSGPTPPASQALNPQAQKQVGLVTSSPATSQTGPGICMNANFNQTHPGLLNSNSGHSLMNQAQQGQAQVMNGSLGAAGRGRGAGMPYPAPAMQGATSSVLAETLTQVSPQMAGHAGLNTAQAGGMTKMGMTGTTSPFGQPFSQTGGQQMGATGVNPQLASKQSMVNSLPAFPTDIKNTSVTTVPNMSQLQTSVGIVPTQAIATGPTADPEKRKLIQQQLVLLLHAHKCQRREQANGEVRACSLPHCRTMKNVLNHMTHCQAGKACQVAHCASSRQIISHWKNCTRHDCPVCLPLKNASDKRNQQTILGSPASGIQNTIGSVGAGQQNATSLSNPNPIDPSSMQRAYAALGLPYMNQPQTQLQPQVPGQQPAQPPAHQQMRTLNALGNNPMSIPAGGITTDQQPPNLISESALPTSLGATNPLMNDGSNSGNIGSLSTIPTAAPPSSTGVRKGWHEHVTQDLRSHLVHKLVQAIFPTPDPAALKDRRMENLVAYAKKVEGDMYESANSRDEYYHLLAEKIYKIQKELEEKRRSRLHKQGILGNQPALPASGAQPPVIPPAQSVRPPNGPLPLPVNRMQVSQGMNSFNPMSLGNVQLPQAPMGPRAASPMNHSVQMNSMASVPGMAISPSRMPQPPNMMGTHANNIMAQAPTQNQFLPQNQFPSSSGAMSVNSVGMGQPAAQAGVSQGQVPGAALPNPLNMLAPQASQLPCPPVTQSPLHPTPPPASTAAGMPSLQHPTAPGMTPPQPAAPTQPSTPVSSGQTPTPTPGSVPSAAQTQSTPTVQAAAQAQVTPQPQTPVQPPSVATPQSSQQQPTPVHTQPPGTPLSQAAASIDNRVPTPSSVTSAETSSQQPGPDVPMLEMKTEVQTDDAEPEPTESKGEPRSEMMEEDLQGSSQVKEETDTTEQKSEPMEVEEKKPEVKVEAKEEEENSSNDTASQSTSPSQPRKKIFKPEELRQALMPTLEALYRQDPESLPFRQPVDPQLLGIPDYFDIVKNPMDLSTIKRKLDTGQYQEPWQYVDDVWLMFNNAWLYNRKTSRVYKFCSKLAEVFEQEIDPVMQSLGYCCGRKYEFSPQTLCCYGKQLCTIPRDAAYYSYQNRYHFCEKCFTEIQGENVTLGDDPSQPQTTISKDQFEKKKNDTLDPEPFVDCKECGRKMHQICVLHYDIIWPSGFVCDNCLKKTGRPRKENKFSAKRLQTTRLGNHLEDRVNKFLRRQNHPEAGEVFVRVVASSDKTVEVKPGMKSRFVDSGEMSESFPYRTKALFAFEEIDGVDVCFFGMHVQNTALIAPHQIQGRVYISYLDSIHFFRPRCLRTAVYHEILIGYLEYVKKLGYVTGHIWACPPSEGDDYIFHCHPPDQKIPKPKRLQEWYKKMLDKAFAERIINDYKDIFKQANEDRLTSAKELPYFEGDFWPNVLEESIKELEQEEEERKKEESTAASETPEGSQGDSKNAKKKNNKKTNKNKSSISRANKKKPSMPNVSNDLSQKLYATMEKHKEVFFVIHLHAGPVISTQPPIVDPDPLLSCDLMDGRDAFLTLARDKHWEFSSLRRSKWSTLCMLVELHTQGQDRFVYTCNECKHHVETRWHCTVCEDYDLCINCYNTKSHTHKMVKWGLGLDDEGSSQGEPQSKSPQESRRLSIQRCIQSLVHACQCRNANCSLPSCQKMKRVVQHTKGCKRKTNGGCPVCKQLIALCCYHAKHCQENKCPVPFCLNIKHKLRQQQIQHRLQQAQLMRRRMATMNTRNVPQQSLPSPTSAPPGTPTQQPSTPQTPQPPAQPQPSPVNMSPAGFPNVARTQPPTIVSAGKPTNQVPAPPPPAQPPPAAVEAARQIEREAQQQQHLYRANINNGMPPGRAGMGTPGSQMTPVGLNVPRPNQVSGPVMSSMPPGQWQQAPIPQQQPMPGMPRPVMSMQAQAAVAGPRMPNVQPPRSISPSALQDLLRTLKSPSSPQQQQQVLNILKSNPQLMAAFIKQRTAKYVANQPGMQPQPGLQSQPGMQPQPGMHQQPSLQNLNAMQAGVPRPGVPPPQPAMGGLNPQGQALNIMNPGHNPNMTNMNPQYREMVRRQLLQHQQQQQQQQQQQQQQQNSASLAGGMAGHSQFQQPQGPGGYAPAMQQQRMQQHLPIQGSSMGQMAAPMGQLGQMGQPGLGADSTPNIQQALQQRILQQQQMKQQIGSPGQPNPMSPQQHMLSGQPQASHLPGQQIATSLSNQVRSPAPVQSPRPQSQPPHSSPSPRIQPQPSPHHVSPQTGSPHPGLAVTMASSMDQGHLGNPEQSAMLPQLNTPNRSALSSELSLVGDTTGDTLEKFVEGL

| effect of a mutation on the interaction [1] | effect of a mutation on the interaction [2] | Substance |
| --- | --- | --- |
| disrupting interaction strength | disrupting interaction strength | Basic helix-loop-helix ARNT-like protein 1 (Mus musculus), Q9WTL8-4 L606A;L607A |
| – | disrupting interaction strength | Basic helix-loop-helix ARNT-like protein 1 (Mus musculus), Q9WTL8-4 V602A;I603F |
